Target: HLA-A*02 (human)
Assay: UV-exchange b2m ELISA

Binder: YLLQSVNQLLL
- peptide exchange yield: 20 to 49%

Binder: GLAVPTPSV
- peptide exchange yield: 50 to 75%

Binder: QLIQTLHAV
- peptide exchange yield: 50 to 75%

Binder: LLLPAVPVGA
- peptide exchange yield: 50 to 75%

Binder: QLWQFLVTL
- peptide exchange yield: 50 to 75%

Binder: GQASYFYVA
- peptide exchange yield: 20 to 49%

Binder: AQADHLPQL
- peptide exchange yield: 20 to 49%

Binder: ALLAKILQI
- peptide exchange yield: 50 to 75%

Binder: RLQDILWFL
- peptide exchange yield: > 75%

Binder: FLFGGVLMTL
- peptide exchange yield: 20 to 49%

Binder: HLSTIIHEA
- peptide exchange yield: 50 to 75%

Binder: QLAPVFQRV
- peptide exchange yield: 20 to 49%

Binder: TQSPATLSV
- peptide exchange yield: 20 to 49%

Binder: GLLGSLFFL
- peptide exchange yield: > 75%

Binder: LLVSHLYLV
- peptide exchange yield: 20 to 49%

Binder: GVVDPVHGV
- peptide exchange yield: 20 to 49%

Binder: ALISWQPPRA
- peptide exchange yield: 50 to 75%

Binder: ALLGMIIVGV
- peptide exchange yield: < 20%

Binder: KMPDVELFV
- peptide exchange yield: 50 to 75%

Binder: SLADYEHFV
- peptide exchange yield: > 75%

Binder: YLVSEIFKA
- peptide exchange yield: 50 to 75%

Binder: FLDKVLVAA
- peptide exchange yield: 50 to 75%

Binder: FLLPTGAEA
- peptide exchange yield: 20 to 49%

Binder: GLLFSLRSV
- peptide exchange yield: > 75%

Binder: AIVDLIHDI
- peptide exchange yield: 20 to 49%

Binder: VTSNSGILGV
- peptide exchange yield: 50 to 75%

Binder: ILLKNLVTI
- peptide exchange yield: 20 to 49%

Binder: KLDGNELDL
- peptide exchange yield: 50 to 75%

Binder: ALLGTKILL
- peptide exchange yield: 50 to 75%

Binder: ALLPRLHQL
- peptide exchange yield: > 75%

Binder: SLDPSVTHL
- peptide exchange yield: 20 to 49%

Binder: RLFPDFFTRVAL
- peptide exchange yield: 20 to 49%

Binder: SLLGGTFVGI
- peptide exchange yield: 50 to 75%

Binder: ILGEVLAQL
- peptide exchange yield: 50 to 75%

Binder: FLERGLESA
- peptide exchange yield: 20 to 49%

Binder: FTIFRTISV
- peptide exchange yield: 50 to 75%

Binder: QMFQYFITV
- peptide exchange yield: > 75%

Binder: SLGKFTFDV
- peptide exchange yield: > 75%

Binder: FIIQGLRSVGA
- peptide exchange yield: 50 to 75%

Binder: VTPVTVSAV
- peptide exchange yield: < 20%

Binder: VLDPALPALV
- peptide exchange yield: 20 to 49%

Binder: VLLDIQEVFQI
- peptide exchange yield: 50 to 75%

Binder: TIYKDFVYI
- peptide exchange yield: 20 to 49%

Binder: FLQDLEQRL
- peptide exchange yield: 50 to 75%

Binder: SLDPDTLPAV
- peptide exchange yield: 20 to 49%

Binder: KVMATIEKV
- peptide exchange yield: 20 to 49%

Binder: ALCPRIHEV
- peptide exchange yield: > 75%

Binder: FIFDEAEKL
- peptide exchange yield: < 20%

Binder: ALADFMLSL
- peptide exchange yield: 50 to 75%

Binder: FINDSIVYL
- peptide exchange yield: 50 to 75%

Binder: LLVPTSGIYFV
- peptide exchange yield: 50 to 75%

Binder: FLLGVSKEV
- peptide exchange yield: 50 to 75%

Binder: SVDSHFQEV
- peptide exchange yield: 20 to 49%

Binder: VLNDILVRA
- peptide exchange yield: 50 to 75%
